# Tests used:
# [1] = test system: ALS; settings: pyruvate reaction; cited from earlier work
# [2] = test system: ALS; settings: cited from earlier work; for Resistance pattern, I50 fold increase: IM: imidazolinone(s); for Resistance pattern, I50 fold increase: SU: sulfonylurea(s)
# [3] = test system: soybean plants; assay: Chlorsulfuron spray test of transgenic T1 soybean plants; assay type: in vivo; settings: chlorsulfuron 3 g ai/ha foliar; homozygous T1 plants; 8 days after treatment; 0=no effect, 100=dead plant
# Description: T1 plants, each having an ALS variant transgene, were grown to the V1 to V2 growth stage and then sprayed with commercial chlorsulfuron formulation at a rate of 3 g ai/ha. All chlorsulfuron treatments were applied foliarly with 0.25% nonionic surfactant in a spray volume of 374 L/ha. Individual plants were compared to untreated plants of similar genetic background, evaluated for herbicide response at eight days after treatment and assigned a visual response score from 0 to 100% injury (0=no effect to 100=dead plant at day 8).
# Results in Table 8 list the lowest injury among plants of a single event for constructs containing the listed expression cassette. The amino acid substituted ALS variants provided more protection than the overexpression of the native ALS gene. Seed was produced from a number of T1 plants and advanced to more extensive herbicide testing in the T2 generation.
Molecule,Kinetic parameters: Km [1],Kinetic parameters: kcat [1],"Resistance pattern, I50 fold increase: IM [2]","Resistance pattern, I50 fold increase: SU [2]","Resistance pattern, I50 fold increase: IP ([2]; IP (abbreviation not defined)) [fold]","Resistance pattern, I50 fold increase: IEt ([2]; imazethapyr) [fold]",Lowest % injury [3] [%]
"A200V: Site-directed mutation in S. cerevisiae ALS; position A205, 186 (protein, UniProt P07342 91-687, looked up, variant A200V) Acetolactate synthase …: GLTGGQIFNEMMSRQNVDTVFGYPGGAILPVYDAIHNSDKFNFVLPKHEQGAGHMAEGYARASGKPGVVLVTSGPGATNVVTPMADAFADGIPMVVFTGQVPTSAIGTDVFQEADVVGISRSCTKWNVMVKSVEELPLRINEAFEIATSGRPGPVLVDLPKDVTAAILRNPIPTKTTLPSNALNQLTSRAQDEFVMQSINKAADLINLAKKPVLYVGAGILNHADGPRLLKELSDRAQIPVTTTLQGLGSFDQEDPKSLDMLGMHGCATANLAVQNADLIIAVGARFDDRVTGNISKFAPEARRAAAEGRGGIIHFEVSPKNINKVVQTQIAVEGDATTNLGKMMSKIFPVKERSEWFAQINKWKKEYPYAYMEETPGSKIKPQTVIKKLSKVANDTGRHVIVTTGVGQHQMWAAQHWTWRNPHTFITSGGLGTMGYGLPAAIGAQVAKPESLVIDIDGDASFNMTLTELSSAVQAGTPVKILILNNEEQGMVTQWQSLFYEHRYSHTHQLNPDFIKLAEAMGLKGLRVKKQEELDAKLKEFVSTKGPVLLEVEVDKKVPVLPMVAGGSGLDEFINFDPEVERQQTELRHKRTGGKH",100 % wt,20 % wt,"IMs, 10-100 fold","SUs, 300-700 fold",,,
"K251T: Site-directed mutation in S. cerevisiae ALS; position K256, 237 (protein, UniProt P07342 91-687, looked up, variant K251T) Acetolactate synthase …: GLTGGQIFNEMMSRQNVDTVFGYPGGAILPVYDAIHNSDKFNFVLPKHEQGAGHMAEGYARASGKPGVVLVTSGPGATNVVTPMADAFADGIPMVVFTGQVPTSAIGTDAFQEADVVGISRSCTKWNVMVKSVEELPLRINEAFEIATSGRPGPVLVDLPTDVTAAILRNPIPTKTTLPSNALNQLTSRAQDEFVMQSINKAADLINLAKKPVLYVGAGILNHADGPRLLKELSDRAQIPVTTTLQGLGSFDQEDPKSLDMLGMHGCATANLAVQNADLIIAVGARFDDRVTGNISKFAPEARRAAAEGRGGIIHFEVSPKNINKVVQTQIAVEGDATTNLGKMMSKIFPVKERSEWFAQINKWKKEYPYAYMEETPGSKIKPQTVIKKLSKVANDTGRHVIVTTGVGQHQMWAAQHWTWRNPHTFITSGGLGTMGYGLPAAIGAQVAKPESLVIDIDGDASFNMTLTELSSAVQAGTPVKILILNNEEQGMVTQWQSLFYEHRYSHTHQLNPDFIKLAEAMGLKGLRVKKQEELDAKLKEFVSTKGPVLLEVEVDKKVPVLPMVAGGSGLDEFINFDPEVERQQTELRHKRTGGKH",65 % wt,1 % wt,"IMs, 10-150 fold","SU, 10-100 fold",,,
"M354V: Site-directed mutation in S. cerevisiae ALS; position M351, 332 (protein, UniProt P07342 91-687, looked up, variant M354V) Acetolactate synthase …: GLTGGQIFNEMMSRQNVDTVFGYPGGAILPVYDAIHNSDKFNFVLPKHEQGAGHMAEGYARASGKPGVVLVTSGPGATNVVTPMADAFADGIPMVVFTGQVPTSAIGTDAFQEADVVGISRSCTKWNVMVKSVEELPLRINEAFEIATSGRPGPVLVDLPKDVTAAILRNPIPTKTTLPSNALNQLTSRAQDEFVMQSINKAADLINLAKKPVLYVGAGILNHADGPRLLKELSDRAQIPVTTTLQGLGSFDQEDPKSLDMLGVHGCATANLAVQNADLIIAVGARFDDRVTGNISKFAPEARRAAAEGRGGIIHFEVSPKNINKVVQTQIAVEGDATTNLGKMMSKIFPVKERSEWFAQINKWKKEYPYAYMEETPGSKIKPQTVIKKLSKVANDTGRHVIVTTGVGQHQMWAAQHWTWRNPHTFITSGGLGTMGYGLPAAIGAQVAKPESLVIDIDGDASFNMTLTELSSAVQAGTPVKILILNNEEQGMVTQWQSLFYEHRYSHTHQLNPDFIKLAEAMGLKGLRVKKQEELDAKLKEFVSTKGPVLLEVEVDKKVPVLPMVAGGSGLDEFINFDPEVERQQTELRHKRTGGKH","Km, 60 % wt","kcat, 50 % wt",,"SUs, 5-85 fold",10,90,
"W586L: Site-directed mutation in S. cerevisiae ALS; position W574, 555 (protein, UniProt P07342 91-687, looked up, variant W586L) Acetolactate synthase …: GLTGGQIFNEMMSRQNVDTVFGYPGGAILPVYDAIHNSDKFNFVLPKHEQGAGHMAEGYARASGKPGVVLVTSGPGATNVVTPMADAFADGIPMVVFTGQVPTSAIGTDAFQEADVVGISRSCTKWNVMVKSVEELPLRINEAFEIATSGRPGPVLVDLPKDVTAAILRNPIPTKTTLPSNALNQLTSRAQDEFVMQSINKAADLINLAKKPVLYVGAGILNHADGPRLLKELSDRAQIPVTTTLQGLGSFDQEDPKSLDMLGMHGCATANLAVQNADLIIAVGARFDDRVTGNISKFAPEARRAAAEGRGGIIHFEVSPKNINKVVQTQIAVEGDATTNLGKMMSKIFPVKERSEWFAQINKWKKEYPYAYMEETPGSKIKPQTVIKKLSKVANDTGRHVIVTTGVGQHQMWAAQHWTWRNPHTFITSGGLGTMGYGLPAAIGAQVAKPESLVIDIDGDASFNMTLTELSSAVQAGTPVKILILNNEEQGMVTQLQSLFYEHRYSHTHQLNPDFIKLAEAMGLKGLRVKKQEELDAKLKEFVSTKGPVLLEVEVDKKVPVLPMVAGGSGLDEFINFDPEVERQQTELRHKRTGGKH","Km, 80 % wt","kcat, 450 % wt","IMs, 8-70 fold","SUs, 1000-10000 fold",,,
"D379N: Site-directed mutation in S. cerevisiae ALS; position D376, 357 (protein, UniProt P07342 91-687, looked up, variant D379N) Acetolactate synthase …: GLTGGQIFNEMMSRQNVDTVFGYPGGAILPVYDAIHNSDKFNFVLPKHEQGAGHMAEGYARASGKPGVVLVTSGPGATNVVTPMADAFADGIPMVVFTGQVPTSAIGTDAFQEADVVGISRSCTKWNVMVKSVEELPLRINEAFEIATSGRPGPVLVDLPKDVTAAILRNPIPTKTTLPSNALNQLTSRAQDEFVMQSINKAADLINLAKKPVLYVGAGILNHADGPRLLKELSDRAQIPVTTTLQGLGSFDQEDPKSLDMLGMHGCATANLAVQNADLIIAVGARFDNRVTGNISKFAPEARRAAAEGRGGIIHFEVSPKNINKVVQTQIAVEGDATTNLGKMMSKIFPVKERSEWFAQINKWKKEYPYAYMEETPGSKIKPQTVIKKLSKVANDTGRHVIVTTGVGQHQMWAAQHWTWRNPHTFITSGGLGTMGYGLPAAIGAQVAKPESLVIDIDGDASFNMTLTELSSAVQAGTPVKILILNNEEQGMVTQWQSLFYEHRYSHTHQLNPDFIKLAEAMGLKGLRVKKQEELDAKLKEFVSTKGPVLLEVEVDKKVPVLPMVAGGSGLDEFINFDPEVERQQTELRHKRTGGKH","Km, 133 % wt","kcat, 140 % wt",hypersensitivity,"SUs, 200-900 fold",,,
"G116S: Site-directed mutation in Saccharomyces cerevisiae ALS; position G121 A. thal., 102 G. max (protein, UniProt P07342 91-687, looked up, variant G116S) Acetolactate synthase …: GLTGGQIFNEMMSRQNVDTVFGYPGSAILPVYDAIHNSDKFNFVLPKHEQGAGHMAEGYARASGKPGVVLVTSGPGATNVVTPMADAFADGIPMVVFTGQVPTSAIGTDAFQEADVVGISRSCTKWNVMVKSVEELPLRINEAFEIATSGRPGPVLVDLPKDVTAAILRNPIPTKTTLPSNALNQLTSRAQDEFVMQSINKAADLINLAKKPVLYVGAGILNHADGPRLLKELSDRAQIPVTTTLQGLGSFDQEDPKSLDMLGMHGCATANLAVQNADLIIAVGARFDDRVTGNISKFAPEARRAAAEGRGGIIHFEVSPKNINKVVQTQIAVEGDATTNLGKMMSKIFPVKERSEWFAQINKWKKEYPYAYMEETPGSKIKPQTVIKKLSKVANDTGRHVIVTTGVGQHQMWAAQHWTWRNPHTFITSGGLGTMGYGLPAAIGAQVAKPESLVIDIDGDASFNMTLTELSSAVQAGTPVKILILNNEEQGMVTQWQSLFYEHRYSHTHQLNPDFIKLAEAMGLKGLRVKKQEELDAKLKEFVSTKGPVLLEVEVDKKVPVLPMVAGGSGLDEFINFDPEVERQQTELRHKRTGGKH","Km, 20 % wt","kcat, 75 % wt",IMs 15-300 fold,"SUs, 1000-10000 fold",,,
SAMS: GM-ALS_P178S_D357E: SAMS promoter driving ALS variant SEQ ID NO 17 in transgenic soybean (protein) MAATASRTTRFSSSSSHPTFPKRITRSTLPLSHQTLTKPNHALKIKCSISKPPTAAPFTKEAPTTEPFVSRFASGEPRKGADILVEALERQGVTTVFAYPGGASMEIHQALTRSAAIRNVLPRHEQGGVFAAEGYARSSGLPGVCIATSGPGATNLVSGLADALMDSVPVVAITGQVSRRMIGTDAFQETPIVEVSRSITKHNYLILDVDDIPRVVAEAFFVATSGRPGPVLIDIPKDVQQQLAVPNWDEPVNLPGYLARLPRPPAEAQLEHIVRLIMEAQKPVLYVGGGSLNSSAELRRFVELTGIPVASTLMGLGTFPIGDEYSLQMLGMHGTVYANYAVDNSDLLLAFGVRFDERVTGKLEAFASRAKIVHIDIDSAEIGKNKQAHVSVCADLKLALKGINMILEEKGVEGKFDLGGWREEINVQKHKFPLGYKTFQDAISPQHAIEVLDELTNGDAIVSTGVGQHQMWAAQFYKYKRPRQWLTSGGLGAMGFGLPAAIGAAVANPGAVVVDIDGDGSFIMNVQELATIRVENLPVKILLLNNQHLGMVVQWEDRFYKSNRAHTYLGDPSSESEIFPNMLKFADACGIPAARVTKKEELRAAIQRMLDTPGPYLLDVIVPHQEHVLPMIPSNGSFKDVITEGDGRTRY,,,,,,,45
